The values below come from patent US20240382677A1.

The experiment deals with recombinant human PD-1 dimer expressed with a C-terminal mouse IgG2a Fc tag (hPD-1-mFc) (human). The experiment is described as follows: competition ELISA, 1.5 nM hPD-1-mFc, coated hPD-L1-hFc; NBI. Background: ELISA stands for enzyme-linked immunosorbent assay.
recombinant human PD-1 dimer expressed with a C-terminal mouse IgG2a Fc tag (hPD-1-mFc) (human), sequence (chain, as listed by the source limits assumed): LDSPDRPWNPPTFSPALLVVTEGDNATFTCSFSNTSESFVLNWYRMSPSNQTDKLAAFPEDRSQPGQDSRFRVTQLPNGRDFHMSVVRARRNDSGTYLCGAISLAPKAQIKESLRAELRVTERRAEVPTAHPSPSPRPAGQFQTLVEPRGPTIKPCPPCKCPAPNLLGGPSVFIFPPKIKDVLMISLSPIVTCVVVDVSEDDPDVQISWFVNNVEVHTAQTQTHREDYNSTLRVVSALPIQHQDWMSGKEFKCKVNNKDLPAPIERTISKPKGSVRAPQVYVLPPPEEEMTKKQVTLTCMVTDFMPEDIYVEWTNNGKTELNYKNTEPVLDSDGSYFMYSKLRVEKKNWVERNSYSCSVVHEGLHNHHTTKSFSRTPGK

For the substance Isotype control 2 (antibody), the % blocking at 200 nM antibody was -18%.
